T1: His6-PhoP (Riemerella anatipestifer RA-YM, UniProt E4TAE7 2-228)
T1 sequence: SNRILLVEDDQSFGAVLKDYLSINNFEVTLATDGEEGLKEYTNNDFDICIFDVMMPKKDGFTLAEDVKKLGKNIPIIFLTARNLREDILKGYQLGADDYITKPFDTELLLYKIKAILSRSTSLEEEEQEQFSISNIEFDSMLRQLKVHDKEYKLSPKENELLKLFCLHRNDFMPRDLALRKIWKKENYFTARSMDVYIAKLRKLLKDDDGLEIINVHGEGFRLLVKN

T2: His6-PhoP-DBD (Riemerella anatipestifer RA-YM, UniProt E4TAE7 130-228)
T2 sequence: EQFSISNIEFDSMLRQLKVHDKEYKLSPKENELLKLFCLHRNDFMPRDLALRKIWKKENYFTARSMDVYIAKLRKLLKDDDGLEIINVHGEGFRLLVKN

B1: KYF39_06865 motif probe (dsDNA)
DNA 1: CGTTAAAAAATAAAGCGAGGTTTTGTTGTTTTAAA
DNA 2: TTTAAAACAACAAAACCTCGCTTTATTTTTTAACG
B2: dedA motif probe (dsDNA)
DNA 1: ATCTATAAAGAGATTTAACAAATTTTATAATTCTA
DNA 2: TAGAATTATAAAATTTGTTAAATCTCTTTATAGAT
B3: KYF39_00915 (transposase) probe (dsDNA)
DNA 1: TGAAAATTTCAAATTTAACTAAAGCTTATAGCAAT
DNA 2: ATTGCTATAAGCTTTAGTTAAATTTGAAATTTTCA
B4: phoPR motif probe (dsDNA)
DNA 1: AAACTCATAATAATCTGTTAAAAAACTCGTTTTTA
DNA 2: TAAAAACGAGTTTTTTAACAGATTATTATGAGTTT
B5: KYF39_00905 (transporter) probe (dsDNA)
DNA 1: CAAAAAATATTTCATTAACAGAATAGACAATCATA
DNA 2: TATGATTGTCTATTCTGTTAATGAAATATTTTTTG
B6: KYF39_07405 (OMPbB) probe (dsDNA)
DNA 1: ATAAAGTGGCAAATTTAACTTTAATAATTAAAAGA
DNA 2: TCTTTTAATTATTAAAGTTAAATTTGCCACTTTAT

Assays:
Conditions in all cases: protein: recombinant; tags: His6 (pET-28a); chain copies: 2; label: 5' biotin on strand 1; blunt
His6-PhoP [1] = molecular target: T1, His6-PhoP; assay: EMSA
His6-PhoP [2] = molecular target: T1, His6-PhoP; assay: EMSA; phosphorylated by acetyl phosphate
His6-PhoP [3] = molecular target: T1, His6-PhoP; assay: EMSA; unphosphorylated
His6-PhoP-DBD = molecular target: T2, His6-PhoP-DBD; assay: EMSA

Binder | binding result (His6-PhoP [1]) | Kd (His6-PhoP [2]) [µM] | Kd (His6-PhoP [3]) [µM] | binding result (His6-PhoP-DBD)
B1 | binds |  |  | 
B2 | binds |  |  | 
B3 |  | 0.0339 | 0.0298 | 
B4 | binds |  |  | no binding
B5 |  | 0.0395 | 0.0392 | 
B6 | binds |  |  | 

Source: PMC9603813, “Genome-Wide Analysis Reveals that PhoP Regulates Pathogenicity in Riemerella anatipestifer”
